# Laboratory results taken from publication PMC8302766.
# B1: low-complexity domain of hnRNPA1 (A1-LCD) (protein)
# chain: MASASSSQRGRSGSGNFGGGRGGGFGGNDNFGRGGNFSGRGGFGGSRGGGGYGGSGDGYNGFGNDGSNFGGGGNYNNQSSNFGPMKGGNFGGRSSGPYGGGGQYFAKPRNQGGYGGSSSSSSYGSGRRF
# Assays:
# Settings in all cases: domain or fragment, No outside chemistry for unlabelled SAXS/AUC samples. Limits are not given, convention is residues 186-320 of short isoform A1-A (isoform B insert 252-303 absent). The hexapeptide 259-264 (311-316 in P09651) is taken as deleted because the printed 7.5 mg/mL = 0.598 mM gives about 12.54 kDa, which fits the delta-hexa form plus an assumed N-terminal GS cleavage scar (about 12.53 kDa), modification not given
# [1] = molecular target: low-complexity domain of hnRNPA1 (A1-LCD); assay: AUC; two-step isodesmic model, KD2 (later steps), 50 mM NaCl
# [2] = molecular target: low-complexity domain of hnRNPA1 (A1-LCD); assay: AUC; isodesmic model, 50 mM NaCl
# [3] = molecular target: low-complexity domain of hnRNPA1 (A1-LCD); assay: AUC; two-step isodesmic model, KD1 (first step), 50 mM NaCl
binder,measurement,setting,value
B1,Kd,[1],2.2 mM
same,Kd,[2],3 mM
same,Kd,[3],5.4 mM
